Measured values reported in patent US20240116985A1, “STAPLED PEPTIDES AND METHODS THEREOF” (priority 2020, published 2024).
Starred links: 1 amine or outer side, 2 acyl side, 3 side chain; linkers in the order of their positions; H or OH if unused. Positions of bridges follow the written chain, without caps; N, C: chain ends. Non-standard residues stand in square brackets, D forms with d. Primed or numbered codes have the meaning given here. No end group written: not given here. *: point of attachment. PyrS2″ = (S)-3-amino-1-((pent-4-en-1-yloxy)carbonyl)pyrrolidine-3-carboxylic acid (stapling residue), C=CCCCOC(=O)N1CC[C@@](N[*:1])(C(=O)[*:2])C1; B5(4) = 2,2-bis(4-pentenyl)glycine = 2-amino-2-(pent-4-en-1-yl)hept-6-enoic acid (stitching residue), C=CCCCC(CCCC=C)(N[*:1])C(=O)[*:2]; B5(5) = 2,2-bis(4-pentenyl)glycine, 2-amino-2-(pent-4-en-1-yl)hept-6-enoic acid (stitching residue), C=CCCCC(CCCC=C)(N[*:1])C(=O)[*:2]; TfeGA = (S)-2-amino-3-((carboxymethyl)(2,2,2-trifluoroethyl)amino)propanoic acid, O=C([C@H](CN(CC(=O)[*:3])CC(F)(F)F)N[*:1])[*:2]; B5(3) = 2,2-bis(4-pentenyl)glycine (stitching residue), C=CCCCC(CCCC=C)(N[*:1])C(=O)[*:2]; ProSAm3 = (allylsulfonyl)-D-proline, C=CCS(=O)(=O)N1CCC[C@@H]1C(=O)*; Phe(3-Ph) = N[C@@H](Cc1cccc(-c2ccccc2)c1)C(=O)O; Phe(3-COOH) = N[C@@H](Cc1cccc(C(=O)O)c1)C(=O)O; Asp(3,3-Me2) = CC(C)(C(=O)O)[C@H](N)C(=O)O; Asp(3R-OH) = N[C@H](C(=O)O)[C@@H](O)C(=O)O; Phe(2-Cl) = N[C@@H](Cc1ccccc1Cl)C(=O)O; Phe(3-F) = N[C@@H](Cc1cccc(F)c1)C(=O)O; Phe(4-F) = N[C@@H](Cc1ccc(F)cc1)C(=O)O; Bta = N[C@@H](Cc1csc2ccccc12)C(=O)O; Lys(iPr) = CC(C)NCCCC[C@H](N)C(=O)O; αAllylPro = C=CC[C@@]1(C(=O)O)CCCN1; tBuAla = CC(C)(C)C[C@H](N)C(=O)O; 3Thi = N[C@@H](Cc1ccsc1)C(=O)O; 2F3MeF″ = Phe derivative; ClAc = O=C(CCl)*

molecular target: full-length beta-Catenin (Uniprot ID P35222) (Homo sapiens (Human)) (UniProt P35222); test: fluorescence polarization competition; full-length beta-catenin, competitor 5FAM-TCF4(10-53)
Sequence (P35222 whole entry): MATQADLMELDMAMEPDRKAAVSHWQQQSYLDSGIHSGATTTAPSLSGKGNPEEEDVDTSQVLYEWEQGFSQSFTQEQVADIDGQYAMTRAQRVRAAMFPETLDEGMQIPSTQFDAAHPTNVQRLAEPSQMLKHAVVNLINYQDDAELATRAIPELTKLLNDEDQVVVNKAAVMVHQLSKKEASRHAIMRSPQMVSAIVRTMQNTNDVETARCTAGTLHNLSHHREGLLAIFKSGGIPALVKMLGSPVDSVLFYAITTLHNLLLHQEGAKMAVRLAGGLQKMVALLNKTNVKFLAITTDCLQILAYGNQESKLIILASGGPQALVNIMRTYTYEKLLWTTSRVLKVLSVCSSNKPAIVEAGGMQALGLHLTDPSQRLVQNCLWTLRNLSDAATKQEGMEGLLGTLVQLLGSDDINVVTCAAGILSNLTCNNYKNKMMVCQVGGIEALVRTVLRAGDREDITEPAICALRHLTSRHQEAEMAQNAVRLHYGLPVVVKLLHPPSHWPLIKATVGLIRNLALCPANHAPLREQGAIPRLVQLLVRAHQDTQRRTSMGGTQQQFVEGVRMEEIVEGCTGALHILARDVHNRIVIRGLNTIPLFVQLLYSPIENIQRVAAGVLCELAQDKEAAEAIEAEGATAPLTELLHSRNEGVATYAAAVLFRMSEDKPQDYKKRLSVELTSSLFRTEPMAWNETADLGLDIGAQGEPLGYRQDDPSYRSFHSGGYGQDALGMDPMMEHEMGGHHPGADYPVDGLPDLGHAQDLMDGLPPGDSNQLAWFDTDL

Going from Ac-[αAllylPro]D[tBuAla][B5(4)]D[TfeGA][Lys(iPr)]AFL[PyrS2″][3Thi][Bta]F-NH2 (staple 1-4, 4-11; also: -CH=CH- in each staple reduced to -CH2-CH2-) [I-1767] to ClAc-[αAllylPro]D[tBuAla][B5(3)]D[Phe(3-COOH)]AAFL[PyrS2″][Phe(2-Cl)][Bta]A-NH2 (staple 1-4, 4-11) [I-2253], the IC50 falls from 327 nM to 189 nM (1.7-fold). The second is the more potent here.

Compared with Ac-[αAllylPro]D[tBuAla][B5(3)]D[Phe(3-COOH)]AAFL[PyrS2″][Phe(3-F)][Bta]A-NH2 (staple 1-4, 4-11) [I-2261], Ac-[αAllylPro]D[tBuAla][B5(5)]D[TfeGA][Lys(iPr)]AFT[PyrS2″][3Thi][Bta]V-NH2 (staple 1-4, 4-11; also: -CH=CH- in each staple reduced to -CH2-CH2-) [I-1770] is 5.1-fold higher in IC50: 34 nM for the first, 175 nM for the second.

Going from [ProSAm3]D[tBuAla][B5(3)]D[TfeGA]AAFL[PyrS2″][3Thi][Bta]Q-NH2 (staple (positions not given here); staple 4-11; not fully specified (bridges)) [I-2266] to Ac-[αAllylPro]D[tBuAla][B5(4)]D[TfeGA][Lys(iPr)]AFL[PyrS2″][3Thi][Bta]L-NH2 (staple 1-4, 4-11; also: -CH=CH- in each staple reduced to -CH2-CH2-) [I-1765], the IC50 rises from 266 nM to 667 nM (2.5-fold). The first is the more potent here.

Going from Ac-[αAllylPro]D[tBuAla][B5(5)]D[TfeGA][Lys(iPr)]AFL[PyrS2″][3Thi][Bta]V-NH2 (staple 1-4, 4-11) [I-1763] to Ac-[αAllylPro]D[tBuAla][B5(4)]D[TfeGA][Lys(iPr)]AFL[PyrS2″][3Thi][Bta]V-NH2 (staple 1-4, 4-11; also: -CH=CH- in each staple reduced to -CH2-CH2-) [I-1769], the IC50 rises from 52 nM to 419 nM (8.1-fold).

Compared with Ac-[αAllylPro]D[tBuAla][B5(3)]D[Phe(3-COOH)]AAFL[PyrS2″][Phe(3-Ph)][2F3MeF″]Q-NH2 (staple 1-4, 4-11) [I-2256], Ac-[αAllylPro]D[tBuAla][B5(3)]D[Phe(3-COOH)]AAFL[PyrS2″][Phe(4-F)][Bta]A-NH2 (staple 1-4, 4-11) [I-2263] is 180-fold lower in IC50: 8410 nM for the first, 47 nM for the second. The second is the more potent here.

Ac-[αAllylPro]D[tBuAla][B5(4)]D[TfeGA][Lys(iPr)]AFT[PyrS2″][3Thi][Bta]L-NH2 (staple 1-4, 4-11; also: -CH=CH- in each staple reduced to -CH2-CH2-) [I-1766] and Ac-[αAllylPro][Asp(3R-OH)][tBuAla][B5(3)]D[Phe(3-COOH)]AAFL[PyrS2″][3Thi][Bta]A-NH2 (staple 1-4, 4-11) [I-2258] are within 1.5-fold of each other in IC50: 267 nM for the first, 272 nM for the second.

First: Ac-[αAllylPro]D[tBuAla][B5(5)]D[TfeGA][Lys(iPr)]AFT[PyrS2″][3Thi][Bta]V-NH2 (staple 1-4, 4-11) [I-1764]
Second: Ac-[αAllylPro]D[tBuAla][B5(4)][Asp(3,3-Me2)][TfeGA]AAFL[PyrS2″][3Thi][Bta]Q-NH2 (staple 1-4, 4-11) [I-1771]
The IC50 of the first is 9.1-fold lower: 23 nM for the first, 209 nM for the second. The first is the more potent here.
